Measurements as given in publication PMC8264439.
Where two headings read alike, the source gives them in different places.

Experiments:
Test in all cases: SEC; analytical Superdex 200 increase 10/300 GL; 180 μM protein in 50 μL injected; 20 mM Hepes (pH 7.5); 0.75 ml/min; 25°C; dimer to monomers
[1] = biological target: SARS-CoV-2 3CLpro C145A variant (SARS-CoV-2)
[2] = biological target: SARS-CoV-2 3CLpro C145A variant (SARS-CoV-2); remark: listed apart in the source
[3] = biological target: SARS-CoV-2 3CLpro C145S variant (SARS-CoV-2)
[4] = biological target: SARS-CoV-2 3CLpro C145S variant (SARS-CoV-2); remark: listed apart in the source
[5] = biological target: SARS-CoV-2 3CLpro H41A variant (SARS-CoV-2)
[6] = biological target: SARS-CoV-2 3CLpro H41D variant (SARS-CoV-2)
[7] = biological target: SARS-CoV-2 3CLpro H41E variant (SARS-CoV-2)

Substance: SARS-CoV-2 3CLpro C145A variant (enzyme)
- stoichiometry N [1]: 2
- stoichiometry N [2]: > 2

Substance: SARS-CoV-2 3CLpro C145S variant (enzyme)
- stoichiometry N [3]: > 2
- stoichiometry N [4]: 2

Substance: SARS-CoV-2 3CLpro H41A variant (enzyme)
- stoichiometry N [5]: 2

Substance: SARS-CoV-2 3CLpro H41D variant (enzyme)
- stoichiometry N [6]: 2

Substance: SARS-CoV-2 3CLpro H41E variant (enzyme)
- stoichiometry N [7]: 2
